# Starred links: 1 amine or outer side, 2 acyl side, 3 side chain; linkers in the order of their positions; H or OH if unused. Non-standard residues stand in square brackets, D forms with d. *: point of attachment. AC4Abu = α-carboxy-4-aminobutyric acid, O=C(C(CCN[*:1])C(=O)[*:3])[*:2]; dBip = N[C@H](Cc1ccc(-c2ccccc2)cc1)C(=O)O; Oic = O=C(O)[C@@H]1C[C@@H]2CCCC[C@@H]2N1; Phe(4-Cl) = N[C@@H](Cc1ccc(Cl)cc1)C(=O)O; Phe(4-I) = N[C@@H](Cc1ccc(I)cc1)C(=O)O; γGlu = O=C(O)[C@H](CCC(=O)[*:2])N[*:1]; NMeR = CN[C@@H](CCCNC(=N)N)C(=O)O; Tridecanoyl = CCCCCCCCCCCCC(=O)*; hArg = N=C(N)NCCCC[C@H](N)C(=O)O; β3hF = N[C@H](CC(=O)O)Cc1ccccc1; Cha = N[C@@H](CC1CCCCC1)C(=O)O; NMeL = CN[C@@H](CC(C)C)C(=O)O; αMeP = C[C@@]1(C(=O)O)CCCN1; Nle = CCCC[C@H](N)C(=O)O; Deg = CCC(N)(CC)C(=O)O; AEEA = NCCOCCOCC(=O)O; Aib = CC(C)(N)C(=O)O
# T1: human APJ receptor (human, UniProt P35414 1-380)
# T1 sequence (looked up): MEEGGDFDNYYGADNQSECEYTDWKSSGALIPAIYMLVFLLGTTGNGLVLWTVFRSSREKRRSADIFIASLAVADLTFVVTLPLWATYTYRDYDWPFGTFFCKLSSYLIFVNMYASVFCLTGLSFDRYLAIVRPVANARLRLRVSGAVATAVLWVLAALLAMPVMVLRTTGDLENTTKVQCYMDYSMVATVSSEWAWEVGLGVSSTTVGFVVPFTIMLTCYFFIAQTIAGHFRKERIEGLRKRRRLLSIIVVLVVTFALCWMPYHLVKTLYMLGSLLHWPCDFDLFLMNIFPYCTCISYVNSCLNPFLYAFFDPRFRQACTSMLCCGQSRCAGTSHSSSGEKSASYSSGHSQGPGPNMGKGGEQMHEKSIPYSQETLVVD
# T2: rat APJ receptor (rat, UniProt Q9JHG3 1-377)
# T2 sequence (looked up): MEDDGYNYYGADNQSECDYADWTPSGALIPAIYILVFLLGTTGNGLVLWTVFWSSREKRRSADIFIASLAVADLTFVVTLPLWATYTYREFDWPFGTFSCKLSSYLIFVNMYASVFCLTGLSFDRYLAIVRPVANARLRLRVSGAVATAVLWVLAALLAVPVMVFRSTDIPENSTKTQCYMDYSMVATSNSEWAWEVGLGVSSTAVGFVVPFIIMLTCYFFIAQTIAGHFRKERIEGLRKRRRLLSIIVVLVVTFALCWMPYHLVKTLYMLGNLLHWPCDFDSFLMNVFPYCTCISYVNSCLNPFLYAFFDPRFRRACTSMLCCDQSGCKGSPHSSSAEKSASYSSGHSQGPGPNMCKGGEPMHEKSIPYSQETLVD
# T3: human APJ receptor (human, UniProt P35414 1-380)
# T3 sequence (looked up): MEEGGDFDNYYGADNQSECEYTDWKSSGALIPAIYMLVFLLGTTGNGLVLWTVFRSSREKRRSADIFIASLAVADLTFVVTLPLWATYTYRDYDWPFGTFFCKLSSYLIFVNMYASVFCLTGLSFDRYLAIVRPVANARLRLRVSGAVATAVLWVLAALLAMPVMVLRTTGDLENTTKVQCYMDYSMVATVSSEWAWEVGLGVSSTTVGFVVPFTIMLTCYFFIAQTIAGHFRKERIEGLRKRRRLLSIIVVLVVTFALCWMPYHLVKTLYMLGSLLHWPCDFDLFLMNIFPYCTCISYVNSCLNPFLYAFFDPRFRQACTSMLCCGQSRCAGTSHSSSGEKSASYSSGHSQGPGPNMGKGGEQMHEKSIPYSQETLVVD
# T4: rat APJ receptor (rat, UniProt Q9JHG3 1-377)
# T4 sequence (looked up): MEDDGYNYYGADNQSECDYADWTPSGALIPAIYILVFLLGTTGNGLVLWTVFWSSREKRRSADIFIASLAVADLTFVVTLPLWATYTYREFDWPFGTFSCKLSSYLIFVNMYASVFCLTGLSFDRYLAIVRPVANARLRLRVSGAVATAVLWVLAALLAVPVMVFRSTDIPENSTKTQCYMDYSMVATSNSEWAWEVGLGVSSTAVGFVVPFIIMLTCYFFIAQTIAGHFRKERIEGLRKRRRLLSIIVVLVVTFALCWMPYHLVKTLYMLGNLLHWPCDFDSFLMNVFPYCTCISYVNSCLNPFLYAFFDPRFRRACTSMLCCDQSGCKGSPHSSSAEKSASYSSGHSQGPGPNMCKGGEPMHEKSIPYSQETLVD
# Experiments:
# Assay in all cases: cell-based or functional assay
# [1] = target: T1, human APJ receptor
# [2] = target: T2, rat APJ receptor
# [3] = target: T3, human APJ receptor; remark: listed apart in the source
# [4] = target: T4, rat APJ receptor; remark: listed apart in the source
EC50 Human APJ Receptor [1] [nM],EC50 Rat APJ Receptor [2] [nM],EC50 Human APJ Receptor (GTPγS assay) [3] [nM],EC50 Rat APJ Receptor (GTPγS assay) [4] [nM],Binder
0.0221,–,–,–,XXXQRPRLSHKGPXPF ({Decanoyl}[AC4Abu][Aeea][Aeea]QRP[NMeArg]LSHKGP[Nle]P[4-Cl-F]{COOH}) [SEQ ID NO: 494]
0.0376,–,–,–,XXXQRPRLSHKGPXPF ({hexanoyl}[AC4Abu][Aeea][Aeea]QRP[NMeArg]LSHKGP[Nle]P[4-Cl-F]{COOH}) [SEQ ID NO: 492]
1.84,0.994,–,–,Ac-[hArg]EQ[hArg]P[dR][NMeL]SHKG[Oic][Phe(4-I)]P[dBip]-OH [SEQ ID NO: 76]
–,–,3.39,3.79,Tridecanoyl-[AC4Abu][AEEA][AEEA]QRP[NMeR][Cha]SHKG[Aib][Nle]P[Phe(4-Cl)]-OH (SMILES CCCCCCCCCCCCC(=O)NCCC(C(=O)O)C(=O)NCCOCCOCC(=O)NCCOCCOCC(=O)N[C@@H](CCC(N)=O)C(=O)N[C@@H](CCCNC(=N)N)C(=O)N1CCC[C@H]1C(=O)N(C)[C@@H](CCCNC(=N)N)C(=O)N[C@@H](CC1CCCCC1)C(=O)N[C@@H](CO)C(=O)N[C@@H](Cc1c[nH]cn1)C(=O)N[C@@H](CCCCN)C(=O)NCC(=O)NC(C)(C)C(=O)N[C@@H](CCCC)C(=O)N1CCC[C@H]1C(=O)N[C@@H](Cc1ccc(Cl)cc1)C(=O)O) [Apelin polypeptide SEQ ID NO: 414]
–,–,3.92,4.01,Tridecanoyl-[AC4Abu][AEEA][AEEA]QRP[NMeR][Cha]SHKG[Deg][Nle]P[Phe(4-Cl)]-OH (SMILES CCCCCCCCCCCCC(=O)NCCC(C(=O)O)C(=O)NCCOCCOCC(=O)NCCOCCOCC(=O)N[C@@H](CCC(N)=O)C(=O)N[C@@H](CCCNC(=N)N)C(=O)N1CCC[C@H]1C(=O)N(C)[C@@H](CCCNC(=N)N)C(=O)N[C@@H](CC1CCCCC1)C(=O)N[C@@H](CO)C(=O)N[C@@H](Cc1c[nH]cn1)C(=O)N[C@@H](CCCCN)C(=O)NCC(=O)NC(CC)(CC)C(=O)N[C@@H](CCCC)C(=O)N1CCC[C@H]1C(=O)N[C@@H](Cc1ccc(Cl)cc1)C(=O)O) [Apelin polypeptide SEQ ID NO: 415]
–,–,0.235,1.15,Tridecanoyl-[γGlu][AEEA][AEEA][dQ]RP[NMeR][Cha]SHKG[αMeP][Nle][Phe(4-Cl)]-OH (SMILES CCCCCCCCCCCCC(=O)N[C@@H](CCC(=O)NCCOCCOCC(=O)NCCOCCOCC(=O)N[C@H](CCC(N)=O)C(=O)N[C@@H](CCCNC(=N)N)C(=O)N1CCC[C@H]1C(=O)N(C)[C@@H](CCCNC(=N)N)C(=O)N[C@@H](CC1CCCCC1)C(=O)N[C@@H](CO)C(=O)N[C@@H](Cc1c[nH]cn1)C(=O)N[C@@H](CCCCN)C(=O)NCC(=O)N1CCC[C@@]1(C)C(=O)N[C@@H](CCCC)C(=O)N[C@@H](Cc1ccc(Cl)cc1)C(=O)O)C(=O)O) [Apelin polypeptide SEQ ID NO: 551]
0.22,0.388,–,–,XXXQRPRLSHKGPXPF ({Acetyl-NH}[AC4Abu][Aeea][Aeea]QRP[NMeArg]LSHKGP[Nle]P[4-Cl-F]{COOH}) [SEQ ID NO: 88]
–,–,7.52,8.38,Tridecanoyl-[γGlu][AEEA][AEEA]QRP[NMeR][Cha]SHKG[Oic][Nle]P[β3hF]-OH (SMILES CCCCCCCCCCCCC(=O)N[C@@H](CCC(=O)NCCOCCOCC(=O)NCCOCCOCC(=O)N[C@@H](CCC(N)=O)C(=O)N[C@@H](CCCNC(=N)N)C(=O)N1CCC[C@H]1C(=O)N(C)[C@@H](CCCNC(=N)N)C(=O)N[C@@H](CC1CCCCC1)C(=O)N[C@@H](CO)C(=O)N[C@@H](Cc1c[nH]cn1)C(=O)N[C@@H](CCCCN)C(=O)NCC(=O)N1[C@H](C(=O)N[C@@H](CCCC)C(=O)N2CCC[C@H]2C(=O)N[C@H](CC(=O)O)Cc2ccccc2)C[C@@H]2CCCC[C@@H]21)C(=O)O) [Apelin polypeptide SEQ ID NO: 379]
